Results as given in patent publication US20150020238.

Target: EGFP-hTNF-α fusion protein comprising the enterokinase-recognizing sequence, P01375
Sequence (P01375 other isoform, or with tags, fused parts or gaps): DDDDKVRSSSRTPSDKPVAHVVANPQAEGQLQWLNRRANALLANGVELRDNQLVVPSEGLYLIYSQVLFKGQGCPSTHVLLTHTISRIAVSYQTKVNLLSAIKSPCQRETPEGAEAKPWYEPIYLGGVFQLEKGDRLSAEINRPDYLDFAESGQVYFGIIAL

B1: human enterokinase light chain protein produced in transformed rice suspension cells (protein)
chain: IVGGSNAKEGAWPWVVGLYYGGRLLCGASLVSSDWLVSAAHCVYGRNLEPSKWTAILGLHMKSNLTSPQTVPRLIDEIVINPHYNRRRKDNDIAMMHLEFKVNYTDYIQPICLPEENQVFPPGRNCSIAGWGTVVYQGTTANILQEADVPLLSNERCQQQMPEYNITENMICAGYEEGGIDSCQGDSGGPLMCQENNRWFLAGVTSFGYKCALPNRPGVYARVSRFTEWIQSFLH
B1 was tested, and the endopeptidase activity was “exhibited the activity of the human enterokinase light chain protein, i.e., recognizing and cleaving the DDDDK amino acid sequence”.
